This sample holds only a part of the variants without activity.
Key:
biotinyl-Phe-oxazolone = test: self-aminoacylation, catalytic enhancement (BFO) (fold over background); higher = more active; k-Seq, kA / k0A0; sequences stand for … in GGGAAUGGAUCCACAUCUACGAAUUC…UUCACUGCAGACUUGACGAAGCUG
In short: (§1)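 Working in 50 μL HEPES/NaCl/KCl/MgCl2/CaCl2 buffer with 5% acetonitrile at pH 6.9–7.0, mutagenized RNA pools (0.43 μM; 21-nt variable region) were reacted with 2–1250 μM of each biotinyl-aminoacyl-oxazolone for 90 minutes at room temperature. Streptavidin capture followed, with quantification by triplicate qPCR and Illumina sequencing. Catalytic enhancement is reported as median kA over the uncatalyzed rate, the low-activity peak of a bimodal Gaussian fit to the data.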

biotinyl-Ile-oxazolone = test: self-aminoacylation, catalytic enhancement (BIO) (fold over background); higher = more active; k-Seq, kA / k0A0; sequences stand for … in GGGAAUGGAUCCACAUCUACGAAUUC…UUCACUGCAGACUUGACGAAGCUG
In short: as §1

biotinyl-Met-oxazolone = test: self-aminoacylation, catalytic enhancement (BMO) (fold over background); higher = more active; k-Seq, kA / k0A0; sequences stand for … in GGGAAUGGAUCCACAUCUACGAAUUC…UUCACUGCAGACUUGACGAAGCUG
In short: as §1

biotinyl-Val-oxazolone = test: self-aminoacylation, catalytic enhancement (BVO) (fold over background); higher = more active; k-Seq, kA / k0A0; sequences stand for … in GGGAAUGGAUCCACAUCUACGAAUUC…UUCACUGCAGACUUGACGAAGCUG
In short: as §1

biotinyl-Leu-oxazolone = test: self-aminoacylation, catalytic enhancement (BLO) (fold over background); higher = more active; k-Seq, kA / k0A0; sequences stand for … in GGGAAUGGAUCCACAUCUACGAAUUC…UUCACUGCAGACUUGACGAAGCUG
In short: as §1

biotinyl-Trp-oxazolone = test: self-aminoacylation, catalytic enhancement (BWO) (fold over background); higher = more active; k-Seq, kA / k0A0; sequences stand for … in GGGAAUGGAUCCACAUCUACGAAUUC…UUCACUGCAGACUUGACGAAGCUG
In short: as §1

Sequence: AGUCAUCUAGGUCAUCGGGUG [Fam2.2 aminoacylation ribozyme variant]
- self-aminoacylation (biotinyl-Phe-oxazolone): 53.9
- self-aminoacylation (biotinyl-Ile-oxazolone): 5.24
- self-aminoacylation (biotinyl-Met-oxazolone): 7.32
- self-aminoacylation (biotinyl-Val-oxazolone): 5.47
- self-aminoacylation (biotinyl-Leu-oxazolone): 7.92
- self-aminoacylation (biotinyl-Trp-oxazolone): 9.27

Sequence: AGUCCCCUGGUCAUCGAGUGA [Fam2.1 aminoacylation ribozyme variant]
- self-aminoacylation (biotinyl-Phe-oxazolone): 42.6
- self-aminoacylation (biotinyl-Ile-oxazolone): 3.3
- self-aminoacylation (biotinyl-Met-oxazolone): 6.67
- self-aminoacylation (biotinyl-Val-oxazolone): 4.13
- self-aminoacylation (biotinyl-Leu-oxazolone): 6.55
- self-aminoacylation (biotinyl-Trp-oxazolone): 7.41

Sequence: AGUGACCUAGGUCAUCGGGUG [Fam2.2 aminoacylation ribozyme variant]
- self-aminoacylation (biotinyl-Phe-oxazolone): 25.7
- self-aminoacylation (biotinyl-Ile-oxazolone): 3.48
- self-aminoacylation (biotinyl-Met-oxazolone): 3.53
- self-aminoacylation (biotinyl-Val-oxazolone): 3.69
- self-aminoacylation (biotinyl-Leu-oxazolone): 4.73
- self-aminoacylation (biotinyl-Trp-oxazolone): 4.64

Sequence: AGUUACCUAGGUCAUCGGGUG [Fam2.2 aminoacylation ribozyme variant]
- self-aminoacylation (biotinyl-Phe-oxazolone): 40.1
- self-aminoacylation (biotinyl-Ile-oxazolone): 4.59
- self-aminoacylation (biotinyl-Met-oxazolone): 5.38
- self-aminoacylation (biotinyl-Val-oxazolone): 4.62
- self-aminoacylation (biotinyl-Leu-oxazolone): 6.47
- self-aminoacylation (biotinyl-Trp-oxazolone): 6.91

Sequence: AUAACCCUGGCCAUCGAGUGA [Fam2.1 aminoacylation ribozyme variant]
- self-aminoacylation (biotinyl-Phe-oxazolone): 11.4
- self-aminoacylation (biotinyl-Ile-oxazolone): 3.35
- self-aminoacylation (biotinyl-Met-oxazolone): 4.48
- self-aminoacylation (biotinyl-Val-oxazolone): 2.09
- self-aminoacylation (biotinyl-Leu-oxazolone): 2.71
- self-aminoacylation (biotinyl-Trp-oxazolone): 3.57

Sequence: AUAACCCUGGUCAACGAGUGA [Fam2.1 aminoacylation ribozyme variant]
- self-aminoacylation (biotinyl-Phe-oxazolone): 31.1
- self-aminoacylation (biotinyl-Ile-oxazolone): 3.32
- self-aminoacylation (biotinyl-Met-oxazolone): 6.45
- self-aminoacylation (biotinyl-Val-oxazolone): 3.33
- self-aminoacylation (biotinyl-Leu-oxazolone): 5.91
- self-aminoacylation (biotinyl-Trp-oxazolone): 6.89

Sequence: AUAACCCUGGUCAUCGAGAGA [Fam2.1 aminoacylation ribozyme variant]
- self-aminoacylation (biotinyl-Phe-oxazolone): 1.12
- self-aminoacylation (biotinyl-Ile-oxazolone): 1.01
- self-aminoacylation (biotinyl-Met-oxazolone): 0.604
- self-aminoacylation (biotinyl-Val-oxazolone): 0.839
- self-aminoacylation (biotinyl-Leu-oxazolone): 0.822
- self-aminoacylation (biotinyl-Trp-oxazolone): 0.804

Sequence: AUAACCCUGGUCAUCGAGGGA [Fam2.1 aminoacylation ribozyme variant]
- self-aminoacylation (biotinyl-Phe-oxazolone): 2.14
- self-aminoacylation (biotinyl-Ile-oxazolone): 1.52
- self-aminoacylation (biotinyl-Met-oxazolone): 1.45
- self-aminoacylation (biotinyl-Val-oxazolone): 1.43
- self-aminoacylation (biotinyl-Leu-oxazolone): 2.12
- self-aminoacylation (biotinyl-Trp-oxazolone): 0.626

Sequence: AUAACCCUGGUCAUCGAGUCA [Fam2.1 aminoacylation ribozyme variant]
- self-aminoacylation (biotinyl-Phe-oxazolone): 0.721
- self-aminoacylation (biotinyl-Ile-oxazolone): 0.774
- self-aminoacylation (biotinyl-Met-oxazolone): 0.958
- self-aminoacylation (biotinyl-Val-oxazolone): 0.806
- self-aminoacylation (biotinyl-Leu-oxazolone): 0.781
- self-aminoacylation (biotinyl-Trp-oxazolone): 0.624

Sequence: AUAACCCUGGUCAUCGAGUGU [Fam2.1 aminoacylation ribozyme variant]
- self-aminoacylation (biotinyl-Phe-oxazolone): 69.6
- self-aminoacylation (biotinyl-Ile-oxazolone): 6.98
- self-aminoacylation (biotinyl-Met-oxazolone): 20
- self-aminoacylation (biotinyl-Val-oxazolone): 7.4
- self-aminoacylation (biotinyl-Leu-oxazolone): 17.9
- self-aminoacylation (biotinyl-Trp-oxazolone): 16.4

Sequence: AUAACCCUGGUCUUCGAGUGA [Fam2.1 aminoacylation ribozyme variant]
- self-aminoacylation (biotinyl-Phe-oxazolone): 17.7
- self-aminoacylation (biotinyl-Ile-oxazolone): 2.9
- self-aminoacylation (biotinyl-Met-oxazolone): 5.08
- self-aminoacylation (biotinyl-Val-oxazolone): 2.71
- self-aminoacylation (biotinyl-Leu-oxazolone): 5.23
- self-aminoacylation (biotinyl-Trp-oxazolone): 6.89

Sequence: AUAACGCUGGUCAUCGAGUGA [Fam2.1 aminoacylation ribozyme variant]
- self-aminoacylation (biotinyl-Phe-oxazolone): 15
- self-aminoacylation (biotinyl-Ile-oxazolone): 3.06
- self-aminoacylation (biotinyl-Met-oxazolone): 4.6
- self-aminoacylation (biotinyl-Val-oxazolone): 2.76
- self-aminoacylation (biotinyl-Leu-oxazolone): 4.06
- self-aminoacylation (biotinyl-Trp-oxazolone): 5.24

Sequence: AUACACCGAGGUCAUCGGGUG [Fam2.2 aminoacylation ribozyme variant]
- self-aminoacylation (biotinyl-Phe-oxazolone): 28.8
- self-aminoacylation (biotinyl-Ile-oxazolone): 4.24
- self-aminoacylation (biotinyl-Met-oxazolone): 5.37
- self-aminoacylation (biotinyl-Val-oxazolone): 4.34
- self-aminoacylation (biotinyl-Leu-oxazolone): 4.55
- self-aminoacylation (biotinyl-Trp-oxazolone): 4.15

Sequence: AUACACCUAGCUCAUCGGGUG [Fam2.2 aminoacylation ribozyme variant]
- self-aminoacylation (biotinyl-Phe-oxazolone): 4.61
- self-aminoacylation (biotinyl-Ile-oxazolone): 1.9
- self-aminoacylation (biotinyl-Met-oxazolone): 2.23
- self-aminoacylation (biotinyl-Val-oxazolone): 2.21
- self-aminoacylation (biotinyl-Leu-oxazolone): 1.91
- self-aminoacylation (biotinyl-Trp-oxazolone): 1.24

Sequence: AUACACCUAGGUAAUCGGGUG [Fam2.2 aminoacylation ribozyme variant]
- self-aminoacylation (biotinyl-Phe-oxazolone): 12.3
- self-aminoacylation (biotinyl-Ile-oxazolone): 1.93
- self-aminoacylation (biotinyl-Met-oxazolone): 2.84
- self-aminoacylation (biotinyl-Val-oxazolone): 2.18
- self-aminoacylation (biotinyl-Leu-oxazolone): 2.07
- self-aminoacylation (biotinyl-Trp-oxazolone): 3.83

Sequence: AUACACCUAGGUCACCGGGUG [Fam2.2 aminoacylation ribozyme variant]
- self-aminoacylation (biotinyl-Phe-oxazolone): 23.3
- self-aminoacylation (biotinyl-Ile-oxazolone): 3.29
- self-aminoacylation (biotinyl-Met-oxazolone): 3.09
- self-aminoacylation (biotinyl-Val-oxazolone): 3.23
- self-aminoacylation (biotinyl-Leu-oxazolone): 3.78
- self-aminoacylation (biotinyl-Trp-oxazolone): 3.79

Sequence: AUACACCUAGGUUAUCGGGUG [Fam2.2 aminoacylation ribozyme variant]
- self-aminoacylation (biotinyl-Phe-oxazolone): 19.1
- self-aminoacylation (biotinyl-Ile-oxazolone): 2.73
- self-aminoacylation (biotinyl-Met-oxazolone): 3.19
- self-aminoacylation (biotinyl-Val-oxazolone): 2.95
- self-aminoacylation (biotinyl-Leu-oxazolone): 2.99
- self-aminoacylation (biotinyl-Trp-oxazolone): 4.77

Sequence: AUACACUUCAAGCAAUCGGUC [Fam1B.1 aminoacylation ribozyme variant]
- self-aminoacylation (biotinyl-Phe-oxazolone): 9.74
- self-aminoacylation (biotinyl-Ile-oxazolone): 1.05
- self-aminoacylation (biotinyl-Met-oxazolone): 0.804
- self-aminoacylation (biotinyl-Val-oxazolone): 0.96
- self-aminoacylation (biotinyl-Leu-oxazolone): 0.979
- self-aminoacylation (biotinyl-Trp-oxazolone): 5.86

Sequence: AUACCUCAAACAAUCGGUCUG [Fam1A.1 aminoacylation ribozyme variant]
- self-aminoacylation (biotinyl-Phe-oxazolone): 4.92
- self-aminoacylation (biotinyl-Ile-oxazolone): 0.977
- self-aminoacylation (biotinyl-Met-oxazolone): 0.919
- self-aminoacylation (biotinyl-Val-oxazolone): 0.92
- self-aminoacylation (biotinyl-Leu-oxazolone): 0.934
- self-aminoacylation (biotinyl-Trp-oxazolone): 1.52

Sequence: AUACUCCUAGGUCAUCGGGUG [Fam2.2 aminoacylation ribozyme variant]
- self-aminoacylation (biotinyl-Phe-oxazolone): 27.5
- self-aminoacylation (biotinyl-Ile-oxazolone): 2.97
- self-aminoacylation (biotinyl-Met-oxazolone): 3.69
- self-aminoacylation (biotinyl-Val-oxazolone): 2.98
- self-aminoacylation (biotinyl-Leu-oxazolone): 5.38
- self-aminoacylation (biotinyl-Trp-oxazolone): 3.91

Sequence: AUACUUCAAACAAUCCGUCUG [Fam1A.1 aminoacylation ribozyme variant]
- self-aminoacylation (biotinyl-Phe-oxazolone): 1.42
- self-aminoacylation (biotinyl-Ile-oxazolone): 1.04
- self-aminoacylation (biotinyl-Met-oxazolone): 1.05
- self-aminoacylation (biotinyl-Val-oxazolone): 0.918
- self-aminoacylation (biotinyl-Leu-oxazolone): 1.09
- self-aminoacylation (biotinyl-Trp-oxazolone): 1.17

Sequence: AUACUUCAAACAAUCGGUGUG [Fam1A.1 aminoacylation ribozyme variant]
- self-aminoacylation (biotinyl-Phe-oxazolone): 3.81
- self-aminoacylation (biotinyl-Ile-oxazolone): 1.05
- self-aminoacylation (biotinyl-Met-oxazolone): 1.22
- self-aminoacylation (biotinyl-Val-oxazolone): 0.94
- self-aminoacylation (biotinyl-Leu-oxazolone): 1.25
- self-aminoacylation (biotinyl-Trp-oxazolone): 2.68

Sequence: AUACUUCAAACAAUUGGUCUG [Fam1A.1 aminoacylation ribozyme variant]
- self-aminoacylation (biotinyl-Phe-oxazolone): 1.16
- self-aminoacylation (biotinyl-Ile-oxazolone): 1.19
- self-aminoacylation (biotinyl-Met-oxazolone): 0.903
- self-aminoacylation (biotinyl-Val-oxazolone): 1.04
- self-aminoacylation (biotinyl-Leu-oxazolone): 0.956
- self-aminoacylation (biotinyl-Trp-oxazolone): 1.16

Sequence: AUACUUCAAACAGUCGGUCUG [Fam1A.1 aminoacylation ribozyme variant]
- self-aminoacylation (biotinyl-Phe-oxazolone): 0.584
- self-aminoacylation (biotinyl-Ile-oxazolone): 0.876
- self-aminoacylation (biotinyl-Met-oxazolone): 0.965
- self-aminoacylation (biotinyl-Val-oxazolone): 0.699
- self-aminoacylation (biotinyl-Leu-oxazolone): 0.996
- self-aminoacylation (biotinyl-Trp-oxazolone): 0.831

Sequence: AUACUUCAUACAAUCGGUCUG [Fam1A.1 aminoacylation ribozyme variant]
- self-aminoacylation (biotinyl-Phe-oxazolone): 1.1
- self-aminoacylation (biotinyl-Ile-oxazolone): 1.02
- self-aminoacylation (biotinyl-Met-oxazolone): 0.981
- self-aminoacylation (biotinyl-Val-oxazolone): 0.939
- self-aminoacylation (biotinyl-Leu-oxazolone): 0.874
- self-aminoacylation (biotinyl-Trp-oxazolone): 0.952

Sequence: AUAUUUCAAACAAUCGGUCUG [Fam1A.1 aminoacylation ribozyme variant]
- self-aminoacylation (biotinyl-Phe-oxazolone): 5.45
- self-aminoacylation (biotinyl-Ile-oxazolone): 0.897
- self-aminoacylation (biotinyl-Met-oxazolone): 0.844
- self-aminoacylation (biotinyl-Val-oxazolone): 0.834
- self-aminoacylation (biotinyl-Leu-oxazolone): 0.891
- self-aminoacylation (biotinyl-Trp-oxazolone): 3.15
